In PMC12372851:

Target: 3Flag-Lef1 (zebrafish) (UniProt Q9W7C0)
Assay: EMSA
Details: 100 mM Hepes pH 7.5, 100 mM NaCl, 50 mM KCl, 1 mM DTT, 1 mM EDTA, 5% glycerol, 30 min at 25 °C

UniProt Q9W7C0, sequence (Q9W7C0 entry or part of it): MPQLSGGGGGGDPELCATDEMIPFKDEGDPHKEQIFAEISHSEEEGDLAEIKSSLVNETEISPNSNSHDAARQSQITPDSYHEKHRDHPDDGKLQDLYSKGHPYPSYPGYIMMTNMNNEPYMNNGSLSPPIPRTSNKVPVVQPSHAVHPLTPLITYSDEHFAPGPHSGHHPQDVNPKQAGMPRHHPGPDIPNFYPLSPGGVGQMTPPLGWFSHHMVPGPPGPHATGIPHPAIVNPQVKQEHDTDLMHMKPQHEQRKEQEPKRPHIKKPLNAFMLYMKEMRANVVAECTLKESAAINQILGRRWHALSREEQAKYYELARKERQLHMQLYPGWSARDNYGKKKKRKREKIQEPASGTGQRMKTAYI

Sequence: CACCACTGATAAAAACTATTAAAGATCAGTCTGGGAGTCACTACTTTACTACTTGGTTTCATCAAAGTATTAAAAAAAGTGATGCGCTGCCTTCTTTAAATGCGTTCAC (double strand) [eya2 promoter WT EMSA probe]
- binding: binds
